# Biological target: EPHB1 (UniProt P54762)
# Test: phosphorylation enrichment, bacterial display (enrichment ratio); higher = better substrate or ligand; peptides without Tyr show the background
# 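Further: 11-residue human phosphosite peptides and single-mutation variants displayed on the E. coli surface, counted by deep sequencing, each peptide's frequency after selection divided by its frequency in the unselected input library; frequency after pTyr selection over input frequency; kinase dosed for 20-30% of maximal phosphorylation in three min.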
# EPHB1, sequence (P54762 whole entry, looked up): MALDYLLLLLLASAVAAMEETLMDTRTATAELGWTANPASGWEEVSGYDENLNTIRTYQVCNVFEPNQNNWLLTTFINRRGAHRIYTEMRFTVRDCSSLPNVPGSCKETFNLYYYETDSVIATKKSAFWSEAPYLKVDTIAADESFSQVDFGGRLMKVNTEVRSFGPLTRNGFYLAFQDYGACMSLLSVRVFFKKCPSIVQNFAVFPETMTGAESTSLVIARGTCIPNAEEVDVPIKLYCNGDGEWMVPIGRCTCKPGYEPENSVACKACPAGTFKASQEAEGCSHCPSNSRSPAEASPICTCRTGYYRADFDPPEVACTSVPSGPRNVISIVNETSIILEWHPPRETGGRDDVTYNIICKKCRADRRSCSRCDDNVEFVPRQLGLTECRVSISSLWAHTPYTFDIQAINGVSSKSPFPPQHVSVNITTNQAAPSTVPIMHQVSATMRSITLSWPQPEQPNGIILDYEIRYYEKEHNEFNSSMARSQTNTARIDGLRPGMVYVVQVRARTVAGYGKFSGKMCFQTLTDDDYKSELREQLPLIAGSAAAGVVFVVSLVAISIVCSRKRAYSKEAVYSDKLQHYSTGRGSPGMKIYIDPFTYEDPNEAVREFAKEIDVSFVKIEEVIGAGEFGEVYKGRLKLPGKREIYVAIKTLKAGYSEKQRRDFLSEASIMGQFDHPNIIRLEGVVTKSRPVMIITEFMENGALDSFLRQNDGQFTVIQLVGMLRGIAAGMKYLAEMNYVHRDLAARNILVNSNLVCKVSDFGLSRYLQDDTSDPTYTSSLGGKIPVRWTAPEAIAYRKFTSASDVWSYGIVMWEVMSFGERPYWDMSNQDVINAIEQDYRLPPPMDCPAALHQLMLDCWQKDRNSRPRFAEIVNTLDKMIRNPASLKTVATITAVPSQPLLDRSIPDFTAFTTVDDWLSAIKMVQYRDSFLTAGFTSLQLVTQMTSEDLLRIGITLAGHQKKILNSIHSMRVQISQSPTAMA
row,Sequence,phosphorylation enrichment
1,QSSEGYDLGDR [KIAA1210_Y564_G565D],0.644
2,VFSTDYFRVGG [NTRK2_Y706_YF],0.826
3,ALKKPYSVLYK [RPF2_Y59_G60S],0.399
4,ASMAKYFASEI [ACADSB_Y372_YF],0.484
5,FETNVYVDKNL [PTCHD3_Y688_K685T],0.546
6,EPVSDYINANV [PTPN11_Y304_I309V],0.42
7,KHMADYPDFKF [SOX11_Y113_YF],0.503
8,LEQGEYALRSH [HADHB_Y244_D242G],0.521
9,FFRKVYHLASV [RBL1_Y796_YF],0.439
10,REEKNYKHKET [BCLAF1_Y459_L461H],0.422
11,LFNQDYPIHCV [GATM_Y227_S231C_YF],1.32
12,QEIATYRRLLE [KRT14_Y415],0.418
13,QLGLQYSQGLV [EIF2B4_Y214_R209Q],0.427
14,HTDDGYMPMSP [IRS1_Y612],0.787
15,SQPASYQRRLL [PPIG_Y320],0.313
16,NVVNEYSSELE [FGB_Y172],0.611
17,LFEDCYLLGTS [ASS1_Y87_R86C_YF],0.572

row,Sequence,phosphorylation enrichment
1,RGEAVYSRDCV [XPC_Y676],0.764
2,EEGENYQKGER [CHGB_Y173],0.53
3,TTKGAYSLSVR [YES1_Y194_I198V],0.404
4,ATDLAYFLVRE [ASL_Y375_K380E_YF],1.02
5,GESQGYDIMEA [MSH2_Y863_P868A],0.469
6,DLNATYRTIQG [U2SURP_Y634],0.578
7,FHLGKYLQEVL [KLB_Y910_Y906H_YF],0.415
8,TVSTRYTQPQP [SARG_Y259],0.386
9,PVGVLYEVKVY [PTS_Y128_K129E],0.945
10,LPSKDYAEVGR [HP_Y272],1.15
11,YLEEEYVKAVG [TF_Y674_G671E],0.629
12,SKEPYYVHCIK [MYO1D_Y586_R588H],0.622
13,FRDALYKFMVD [PHEX_Y250_YF],0.768
14,NTGDFCDLFGG [PTPN11_Y63_Y63C_YF],0.584
15,GRSTFYWPSPR [GAGE12J_Y10_R13S_YF],0.541
16,FNSLPYQVPTS [CALCOCO2_Y358],0.464

# System: c-Src
# Test: as above
row,Sequence,phosphorylation enrichment
1,QSSEGYDLGDR [KIAA1210_Y564_G565D],0.688
2,VFSTDYFRVGG [NTRK2_Y706_YF],0.757
3,ALKKPYSVLYK [RPF2_Y59_G60S],0.454
4,ASMAKYFASEI [ACADSB_Y372_YF],0.35
5,FETNVYVDKNL [PTCHD3_Y688_K685T],0.36
6,EPVSDYINANV [PTPN11_Y304_I309V],0.37
7,KHMADYPDFKF [SOX11_Y113_YF],0.386
8,LEQGEYALRSH [HADHB_Y244_D242G],0.681
9,FFRKVYHLASV [RBL1_Y796_YF],0.503
10,REEKNYKHKET [BCLAF1_Y459_L461H],0.741
11,LFNQDYPIHCV [GATM_Y227_S231C_YF],0.33
12,QEIATYRRLLE [KRT14_Y415],0.503
13,QLGLQYSQGLV [EIF2B4_Y214_R209Q],0.629
14,HTDDGYMPMSP [IRS1_Y612],0.503
15,SQPASYQRRLL [PPIG_Y320],0.365
16,NVVNEYSSELE [FGB_Y172],0.482
17,LFEDCYLLGTS [ASS1_Y87_R86C_YF],1.6

row,Sequence,phosphorylation enrichment
1,RGEAVYSRDCV [XPC_Y676],2.34
2,EEGENYQKGER [CHGB_Y173],0.463
3,TTKGAYSLSVR [YES1_Y194_I198V],0.376
4,ATDLAYFLVRE [ASL_Y375_K380E_YF],0.783
5,GESQGYDIMEA [MSH2_Y863_P868A],0.417
6,DLNATYRTIQG [U2SURP_Y634],0.674
7,FHLGKYLQEVL [KLB_Y910_Y906H_YF],0.491
8,TVSTRYTQPQP [SARG_Y259],0.364
9,PVGVLYEVKVY [PTS_Y128_K129E],0.585
10,LPSKDYAEVGR [HP_Y272],0.709
11,YLEEEYVKAVG [TF_Y674_G671E],0.505
12,SKEPYYVHCIK [MYO1D_Y586_R588H],0.543
13,FRDALYKFMVD [PHEX_Y250_YF],0.582
14,NTGDFCDLFGG [PTPN11_Y63_Y63C_YF],0.413
15,GRSTFYWPSPR [GAGE12J_Y10_R13S_YF],0.551
16,FNSLPYQVPTS [CALCOCO2_Y358],0.561

# Biological target: Hck (UniProt P08631)
# Sequence (P08631 whole entry, looked up): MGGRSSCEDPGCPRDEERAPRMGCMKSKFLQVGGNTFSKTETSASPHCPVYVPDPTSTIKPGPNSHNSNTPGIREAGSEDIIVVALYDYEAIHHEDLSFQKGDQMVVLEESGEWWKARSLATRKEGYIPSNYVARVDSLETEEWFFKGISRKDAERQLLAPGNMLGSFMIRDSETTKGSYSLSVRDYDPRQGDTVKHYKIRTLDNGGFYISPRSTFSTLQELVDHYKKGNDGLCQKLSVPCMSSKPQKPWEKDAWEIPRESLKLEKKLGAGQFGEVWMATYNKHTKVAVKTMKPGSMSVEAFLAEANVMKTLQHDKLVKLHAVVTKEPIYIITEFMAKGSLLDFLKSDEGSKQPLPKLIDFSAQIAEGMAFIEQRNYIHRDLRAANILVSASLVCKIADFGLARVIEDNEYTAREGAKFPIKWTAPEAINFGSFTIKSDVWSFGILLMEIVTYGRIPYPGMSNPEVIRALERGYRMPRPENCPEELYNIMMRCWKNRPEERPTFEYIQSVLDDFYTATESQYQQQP
# Test: as above
row,Sequence,phosphorylation enrichment
1,QSSEGYDLGDR [KIAA1210_Y564_G565D],0.546
2,VFSTDYFRVGG [NTRK2_Y706_YF],0.459
3,ALKKPYSVLYK [RPF2_Y59_G60S],0.474
4,ASMAKYFASEI [ACADSB_Y372_YF],0.384
5,FETNVYVDKNL [PTCHD3_Y688_K685T],0.578
6,EPVSDYINANV [PTPN11_Y304_I309V],0.428
7,KHMADYPDFKF [SOX11_Y113_YF],0.391
8,LEQGEYALRSH [HADHB_Y244_D242G],0.697
9,FFRKVYHLASV [RBL1_Y796_YF],0.337
10,REEKNYKHKET [BCLAF1_Y459_L461H],0.53
11,LFNQDYPIHCV [GATM_Y227_S231C_YF],0.555
12,QEIATYRRLLE [KRT14_Y415],0.453
13,QLGLQYSQGLV [EIF2B4_Y214_R209Q],0.598
14,HTDDGYMPMSP [IRS1_Y612],0.834
15,SQPASYQRRLL [PPIG_Y320],0.253
16,NVVNEYSSELE [FGB_Y172],0.628
17,LFEDCYLLGTS [ASS1_Y87_R86C_YF],0.58

row,Sequence,phosphorylation enrichment
1,RGEAVYSRDCV [XPC_Y676],2.93
2,EEGENYQKGER [CHGB_Y173],0.467
3,TTKGAYSLSVR [YES1_Y194_I198V],0.483
4,ATDLAYFLVRE [ASL_Y375_K380E_YF],0.782
5,GESQGYDIMEA [MSH2_Y863_P868A],0.492
6,DLNATYRTIQG [U2SURP_Y634],0.688
7,FHLGKYLQEVL [KLB_Y910_Y906H_YF],0.591
8,TVSTRYTQPQP [SARG_Y259],0.37
9,PVGVLYEVKVY [PTS_Y128_K129E],0.728
10,LPSKDYAEVGR [HP_Y272],0.951
11,YLEEEYVKAVG [TF_Y674_G671E],0.575
12,SKEPYYVHCIK [MYO1D_Y586_R588H],0.557
13,FRDALYKFMVD [PHEX_Y250_YF],0.559
14,NTGDFCDLFGG [PTPN11_Y63_Y63C_YF],0.578
15,GRSTFYWPSPR [GAGE12J_Y10_R13S_YF],0.559
16,FNSLPYQVPTS [CALCOCO2_Y358],0.56

# Biological target: EPHB2 (UniProt P29323)
# Sequence (P29323 whole entry, looked up): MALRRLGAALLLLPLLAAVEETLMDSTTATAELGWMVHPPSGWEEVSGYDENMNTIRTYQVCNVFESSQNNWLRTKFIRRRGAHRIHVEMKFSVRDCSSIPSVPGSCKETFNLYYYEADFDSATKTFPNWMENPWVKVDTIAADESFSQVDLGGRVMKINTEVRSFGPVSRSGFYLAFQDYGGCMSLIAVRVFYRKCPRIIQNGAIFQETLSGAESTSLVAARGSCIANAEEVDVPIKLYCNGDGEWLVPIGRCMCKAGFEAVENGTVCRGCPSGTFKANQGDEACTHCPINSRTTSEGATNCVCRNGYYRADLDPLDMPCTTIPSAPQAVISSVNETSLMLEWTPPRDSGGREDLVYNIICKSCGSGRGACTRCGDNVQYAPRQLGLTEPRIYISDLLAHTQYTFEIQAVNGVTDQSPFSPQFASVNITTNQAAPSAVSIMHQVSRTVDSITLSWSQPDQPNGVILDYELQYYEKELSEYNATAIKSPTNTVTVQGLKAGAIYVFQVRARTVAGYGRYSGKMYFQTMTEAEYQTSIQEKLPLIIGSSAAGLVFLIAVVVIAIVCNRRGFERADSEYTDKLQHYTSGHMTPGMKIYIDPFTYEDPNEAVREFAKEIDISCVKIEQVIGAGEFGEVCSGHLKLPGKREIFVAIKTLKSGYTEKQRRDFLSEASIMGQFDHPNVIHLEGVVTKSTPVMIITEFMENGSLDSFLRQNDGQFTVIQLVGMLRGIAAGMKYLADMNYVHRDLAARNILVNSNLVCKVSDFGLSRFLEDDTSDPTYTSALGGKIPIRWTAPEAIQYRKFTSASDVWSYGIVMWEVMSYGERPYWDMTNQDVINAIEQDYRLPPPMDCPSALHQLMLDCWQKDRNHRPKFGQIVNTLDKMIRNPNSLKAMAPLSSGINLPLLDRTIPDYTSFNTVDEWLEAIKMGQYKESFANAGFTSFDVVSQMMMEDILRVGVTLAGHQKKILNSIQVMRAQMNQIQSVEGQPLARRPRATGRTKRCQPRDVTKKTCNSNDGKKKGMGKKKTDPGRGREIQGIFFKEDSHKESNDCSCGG
# Test: as above
row,Sequence,phosphorylation enrichment
1,QSSEGYDLGDR [KIAA1210_Y564_G565D],0.853
2,VFSTDYFRVGG [NTRK2_Y706_YF],0.709
3,ALKKPYSVLYK [RPF2_Y59_G60S],0.433
4,ASMAKYFASEI [ACADSB_Y372_YF],0.436
5,FETNVYVDKNL [PTCHD3_Y688_K685T],0.539
6,EPVSDYINANV [PTPN11_Y304_I309V],0.486
7,KHMADYPDFKF [SOX11_Y113_YF],0.496
8,LEQGEYALRSH [HADHB_Y244_D242G],0.556
9,FFRKVYHLASV [RBL1_Y796_YF],0.415
10,REEKNYKHKET [BCLAF1_Y459_L461H],0.55
11,LFNQDYPIHCV [GATM_Y227_S231C_YF],0.889
12,QEIATYRRLLE [KRT14_Y415],0.53
13,QLGLQYSQGLV [EIF2B4_Y214_R209Q],0.479
14,HTDDGYMPMSP [IRS1_Y612],0.756
15,SQPASYQRRLL [PPIG_Y320],0.337
16,NVVNEYSSELE [FGB_Y172],0.627
17,LFEDCYLLGTS [ASS1_Y87_R86C_YF],0.716

row,Sequence,phosphorylation enrichment
1,RGEAVYSRDCV [XPC_Y676],0.655
2,EEGENYQKGER [CHGB_Y173],0.571
3,TTKGAYSLSVR [YES1_Y194_I198V],0.5
4,ATDLAYFLVRE [ASL_Y375_K380E_YF],0.953
5,GESQGYDIMEA [MSH2_Y863_P868A],0.484
6,DLNATYRTIQG [U2SURP_Y634],0.751
7,FHLGKYLQEVL [KLB_Y910_Y906H_YF],0.514
8,TVSTRYTQPQP [SARG_Y259],0.427
9,PVGVLYEVKVY [PTS_Y128_K129E],0.552
10,LPSKDYAEVGR [HP_Y272],1.24
11,YLEEEYVKAVG [TF_Y674_G671E],0.63
12,SKEPYYVHCIK [MYO1D_Y586_R588H],0.704
13,FRDALYKFMVD [PHEX_Y250_YF],0.602
14,NTGDFCDLFGG [PTPN11_Y63_Y63C_YF],0.555
15,GRSTFYWPSPR [GAGE12J_Y10_R13S_YF],0.693
16,FNSLPYQVPTS [CALCOCO2_Y358],0.504

# From the supplement of paper PMC10065799, “High-throughput profiling of sequence recognition by tyrosine kinases and SH2 domains using bacterial peptide display” (eLife, 2023)
